Results from the supplement of paper PMC9170038.

Tested on: K4 kissing-loop RNA reporter
Experiment: apparent KD of K4 kissing-loop reporter; higher = weaker reporter binding
Settings: Eterna round: R107; input ligand: none
Description: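 RNA-MaP round R107: designed RNA switches with theophylline, tryptophan, arginine or FMN aptamers are transcribed on-chip within common flanks. They are titrated with a labelled K4 kissing-loop RNA reporter in RNA-MaP buffer (100 mM Tris pH 7.5, 80 mM KCl, 4 mM MgCl2), without ligand or with the indicated ligand. Median apparent KD per design.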
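Note: bound reporter read as fluorescence of individual clusters on recovered sequencing chips by microscopy, with normalized cluster intensities fitted with a binding model.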

| Sequence | apparent KD of K4 kissing-loop reporter [µM] |
| --- | --- |
| GGUAGCAUGGCGGCCGCCACUACUGACAGCUGUCUGUUCUGGGUACCAGGGAGUGAUGUUCCCGGUAGGACCGGGCCAUGCUACC | 0.114 |
| CCAUUCUUUUACGAUACCAGUUUAAUAUAUUUAUUCAAAACCCUUGCCGAGUGAUGUUCGGACCCUUGGCAGCGUUUGCGAGAGG [ttedstkmullin] | 0.465 |
| AUAGUGAGCUCGGCCGCCACUCCACUAUGUCAACAGUAGCUCUGUCAUAACCAGUGAUGUUGGUUGAGGACCGGGAGUUAAGACU [theeternabot_exclusion_KL_Trp_B_34] | 0.198 |
| UGACUGGACUGAAGGAGCGUUCAGGUAGGUCGCAUAGGAGUGAUGUUCCAAUGAAGGAGCGAGCAGGUAGGUCGCAGUCUAGUCU [ArgBS 13 #DoubleAptamer #SwitchBubble] | 0.243 |
| GGUCCACGCCAUGCCAGUGAUGUUGGUAAGCGAGGACCGGUACGGCCGCCACUCGUUCAAUACCGUAUCGCCCAUAACCUGGAGA [Oneseror] | 0.104 |
| AGUGUUAGGUUAGAUACCAGCCGUCUGUGAGUAACCCACAGACCGCCAGUGAUGUUGGCAGGCCCUUGGCAGCUAACAGGACAGA [Anesarerza] | 0.21 |
| CAUACGCAUGGAGGAUAUGAGAUUACUCAUGUCAUUUAAUAUUCUCAGUGAUGUUGAGAUUUAGGCUCAGAAGGCCAUGUGUAUG [Ex FMN B 17] | 0.63 |

Same assay, conditions: Eterna round: R107; input ligand: theophylline 20 uM

| Sequence | apparent KD of K4 kissing-loop reporter [µM] |
| --- | --- |
| GGGUGUAGUGCGGCCGCCACUGUGAUAGUAGAAGAGUAUAGUGAUGUUAUAUAGGAUUAAUAGAAUAGGACCGGGCAUUAGACUU [#24 K4 Tryptophan B Same State] | 0.395 |
| CCUAUCUCGUACGAUACCAGUCAAUGAUCUUUGAUCAAUGCCAUCACCGAGUGAUGUUCGGACCCUUGGCAGCGUAUGAGAUGGG [whbob_Ex_Theo_B_sa105] | 0.386 |
| GGUAGCAUGGCGGCCGCCACUAUUACUGGAUCGGAAACGAUCCAGUAUUUAUGAGUGAUGUUCAUUAGGACCGGGCCAUGCUACC | 0.305 |
| AAUAAGGUCGCCGAUACCAGCGCGGGCAGAGCAAAGCUCUGCCCGGCAGUGAUGUUGCCGCGCCCUUGGCAGCGGUGGCACGACC [Omei KL Theo B SS C v7] | 0.216 |
| GUCCCGAGUGAUGUUCGGGUCGUUCGGGAAGGAGCGCCCGCAAGGGCAGGUAGGUCGCCCGGAUCUCUCAGGUAACUGAGAGACC [#2 Same State - Arginine A Attempt #28 (HarryS)] | 0.408 |
| GCUACCUAGGCAGGAUAUAGACAUUGAGUGAUGUUCGAUGAUUAUCCAUAUUCCCGUCACAUAUGACUAGAAGGGCCUAGGUAGC | 0.228 |
| AGUGAUGUAUGGCGGUGUGUCACUUAAAAUCAGGAUAUAUAAACAAAUAGAAGGGAUGGCGGAGUGAUGUUCCGCCGGCCGCCAU [FMN A Exl V2] | 0.165 |
| AAUUUAUUAUCUGAUACCAGACUUUUUCUUGUAUAUAAGUCAAGUGAUGUUUGACUUUUAGUCCCUUGGCAGCAGUAUUUUUUAA [JR_Nu_SSTheophyB_Sub027] | 0.123 |
| AAACAUCACUGGGAGUGAUGUUCUCAGUGACGAGGACCGGUACGGCCGCCACUCGCGAGAGAUAUAGUCUAGUAAUGACUGCAUU [Excl Tryptophan A V9] | 0.322 |
| CUUAGGAGUGGUGUUGAUUAGGGAGCGGAAGGAGCGCCAAUGAUGGCAGGUAGGUCGCCGGAAUAUAGUGAUGUUAUAUAGAGGG [ExArgA.Q] | 0.29 |
| CCGUGGAGUGAUGUUCCACGUUCUACGGAUACCAGCUUUGCCAAAGGCCCUUGGCAGCCGCACCUUGCAGUGAUGUUGUGAGGCU [Same State Theophylline A Gf7] | 0.302 |
| CGCAGUGAUGUUGCUAUUAUUCUUGAUUAACGAGGACCGGUACGGCCGCCACUCGAUUUCUAUCUAAUCCAGUGUUUUGUUGAGU [JR_ExcTryptoA_Sub002] | 0.455 |
| GGUAGCAUGGCGGCCGCCACUACUGACAGCUGUCUGUUCUGGGUACCAGGGAGUGAUGUUCCCGGUAGGACCGGGCCAUGCUACC | 0.112 |
| CCAUUCUUUUACGAUACCAGUUUAAUAUAUUUAUUCAAAACCCUUGCCGAGUGAUGUUCGGACCCUUGGCAGCGUUUGCGAGAGG [ttedstkmullin] | 0.434 |
| AUAGUGAGCUCGGCCGCCACUCCACUAUGUCAACAGUAGCUCUGUCAUAACCAGUGAUGUUGGUUGAGGACCGGGAGUUAAGACU [theeternabot_exclusion_KL_Trp_B_34] | 0.195 |
| UGACUGGACUGAAGGAGCGUUCAGGUAGGUCGCAUAGGAGUGAUGUUCCAAUGAAGGAGCGAGCAGGUAGGUCGCAGUCUAGUCU [ArgBS 13 #DoubleAptamer #SwitchBubble] | 0.205 |
| GGUCCACGCCAUGCCAGUGAUGUUGGUAAGCGAGGACCGGUACGGCCGCCACUCGUUCAAUACCGUAUCGCCCAUAACCUGGAGA [Oneseror] | 0.0965 |
| AGUGUUAGGUUAGAUACCAGCCGUCUGUGAGUAACCCACAGACCGCCAGUGAUGUUGGCAGGCCCUUGGCAGCUAACAGGACAGA [Anesarerza] | 0.152 |
| CAUACGCAUGGAGGAUAUGAGAUUACUCAUGUCAUUUAAUAUUCUCAGUGAUGUUGAGAUUUAGGCUCAGAAGGCCAUGUGUAUG [Ex FMN B 17] | 0.534 |

Same assay, conditions: Eterna round: R107; input ligand: tryptophan 2.4 mM

| Sequence | apparent KD of K4 kissing-loop reporter [µM] |
| --- | --- |
| GGGUGUAGUGCGGCCGCCACUGUGAUAGUAGAAGAGUAUAGUGAUGUUAUAUAGGAUUAAUAGAAUAGGACCGGGCAUUAGACUU [#24 K4 Tryptophan B Same State] | 0.209 |
| CCUAUCUCGUACGAUACCAGUCAAUGAUCUUUGAUCAAUGCCAUCACCGAGUGAUGUUCGGACCCUUGGCAGCGUAUGAGAUGGG [whbob_Ex_Theo_B_sa105] | 0.242 |
| GGUAGCAUGGCGGCCGCCACUAUUACUGGAUCGGAAACGAUCCAGUAUUUAUGAGUGAUGUUCAUUAGGACCGGGCCAUGCUACC | 0.208 |
| AAUAAGGUCGCCGAUACCAGCGCGGGCAGAGCAAAGCUCUGCCCGGCAGUGAUGUUGCCGCGCCCUUGGCAGCGGUGGCACGACC [Omei KL Theo B SS C v7] | 0.0558 |
| GUCCCGAGUGAUGUUCGGGUCGUUCGGGAAGGAGCGCCCGCAAGGGCAGGUAGGUCGCCCGGAUCUCUCAGGUAACUGAGAGACC [#2 Same State - Arginine A Attempt #28 (HarryS)] | 0.416 |
| GCUACCUAGGCAGGAUAUAGACAUUGAGUGAUGUUCGAUGAUUAUCCAUAUUCCCGUCACAUAUGACUAGAAGGGCCUAGGUAGC | 0.211 |
| AGUGAUGUAUGGCGGUGUGUCACUUAAAAUCAGGAUAUAUAAACAAAUAGAAGGGAUGGCGGAGUGAUGUUCCGCCGGCCGCCAU [FMN A Exl V2] | 0.159 |
| AAUUUAUUAUCUGAUACCAGACUUUUUCUUGUAUAUAAGUCAAGUGAUGUUUGACUUUUAGUCCCUUGGCAGCAGUAUUUUUUAA [JR_Nu_SSTheophyB_Sub027] | 0.155 |
| AAACAUCACUGGGAGUGAUGUUCUCAGUGACGAGGACCGGUACGGCCGCCACUCGCGAGAGAUAUAGUCUAGUAAUGACUGCAUU [Excl Tryptophan A V9] | 0.391 |
| CUUAGGAGUGGUGUUGAUUAGGGAGCGGAAGGAGCGCCAAUGAUGGCAGGUAGGUCGCCGGAAUAUAGUGAUGUUAUAUAGAGGG [ExArgA.Q] | 0.222 |
| CCGUGGAGUGAUGUUCCACGUUCUACGGAUACCAGCUUUGCCAAAGGCCCUUGGCAGCCGCACCUUGCAGUGAUGUUGUGAGGCU [Same State Theophylline A Gf7] | 0.274 |
| CGCAGUGAUGUUGCUAUUAUUCUUGAUUAACGAGGACCGGUACGGCCGCCACUCGAUUUCUAUCUAAUCCAGUGUUUUGUUGAGU [JR_ExcTryptoA_Sub002] | 0.24 |
| GGUAGCAUGGCGGCCGCCACUACUGACAGCUGUCUGUUCUGGGUACCAGGGAGUGAUGUUCCCGGUAGGACCGGGCCAUGCUACC | 0.266 |
| CCAUUCUUUUACGAUACCAGUUUAAUAUAUUUAUUCAAAACCCUUGCCGAGUGAUGUUCGGACCCUUGGCAGCGUUUGCGAGAGG [ttedstkmullin] | 0.356 |
| AUAGUGAGCUCGGCCGCCACUCCACUAUGUCAACAGUAGCUCUGUCAUAACCAGUGAUGUUGGUUGAGGACCGGGAGUUAAGACU [theeternabot_exclusion_KL_Trp_B_34] | 0.201 |
| UGACUGGACUGAAGGAGCGUUCAGGUAGGUCGCAUAGGAGUGAUGUUCCAAUGAAGGAGCGAGCAGGUAGGUCGCAGUCUAGUCU [ArgBS 13 #DoubleAptamer #SwitchBubble] | 0.158 |
| GGUCCACGCCAUGCCAGUGAUGUUGGUAAGCGAGGACCGGUACGGCCGCCACUCGUUCAAUACCGUAUCGCCCAUAACCUGGAGA [Oneseror] | 0.118 |
| AGUGUUAGGUUAGAUACCAGCCGUCUGUGAGUAACCCACAGACCGCCAGUGAUGUUGGCAGGCCCUUGGCAGCUAACAGGACAGA [Anesarerza] | 0.211 |
| CAUACGCAUGGAGGAUAUGAGAUUACUCAUGUCAUUUAAUAUUCUCAGUGAUGUUGAGAUUUAGGCUCAGAAGGCCAUGUGUAUG [Ex FMN B 17] | 0.525 |
